Reference: publication PMC6753332

Molecular target: neuropilin-1 (NRP1), wildtype, expressed on BW cells (human) (UniProt O14786)
Assay: flow cytometry on cells; saturation: BW NRP1 cells with increasing concentrations of monomeric rh-C4Ad, detected with monoclonal C4d antibody and PE goat anti-mouse IgG; Langmuir isotherm for single-class 1:1 binding; apparent KD

Kd: 710 nM
Substance: recombinant human C4Ad (rh-C4Ad) (domain or fragment)
